Columns and labels:
[1] = target: the molecule itself; experiment: AUC; sedimentation velocity; 13 μM protein in 10 mM HEPES pH 7.4, 120 mM NaCl, 0.25% glycerol, 4°C, 40,000 rpm; c(s) and c(M) distributions (SEDFIT)
[2] = target: the molecule itself; experiment: AUC; sedimentation equilibrium; protein at 6.5, 11.9 and 25.2 μM, 10,000 and 15,000 rpm; global fit to a self-association model; dimer to monomers

Protein	stoichiometry N [1]	Kd [2] [nM]
Human ASK1 catalytic (kinase) domain, residues 659-951, phosphatase-treated (domain or fragment, mixture of un- and monophosphorylated protein; Thr838 partially phosphorylated in the crystal, Apoptosis signal-regulating kinase 1 (ASK1, MAP3K5), human, residues 659-951 of the 1,374-residue protein, gi|5174547; Crystallised with 1 mM staurosporine; also called MAP3K5; ASK1 kinase domain; not shown: His6, N-terminal, cleaved) not shown	2	220 ± 200
Human ASK1 catalytic (kinase) domain, homogeneously triphosphorylated (domain or fragment, phosphothreonine at 813, 838 and 842 (autophosphorylation sites identified by mass spectrometry), Apoptosis signal-regulating kinase 1 (ASK1, MAP3K5), human, residues 659-951, gi|5174547; the same recombinant construct as m1, autophosphorylated; also called Tri-phosphorylated ASK1; triphosphorylated ASK1; source: recombinant protein treated with ATP/Mg2+ (autophosphorylated)) not shown	2	

— publication PMC2100151, “Structural and Functional Characterization of the Human Protein Kinase ASK1” (Structure(London, England:1993), 2007)
